{"source": "patent US12121566B2", "about": "“Methods for treating gout” (Horizon Therapeutics USA, Inc., priority 2019, dated 2024)", "key": {"[1]": {"tested_on": "patients with chronic gout refractory to conventional therapy", "test": "Open-label extension study", "type": "in vivo, human", "settings": "KXX 8 mg every 2 weeks", "description": "Two cases of congestive heart failure exacerbation occurred during the trials in patients receiving treatment with KXX 8 mg every 2 weeks. No cases were reported in placebo-treated patients. Four subjects had exacerbations of pre-existing congestive heart failure while receiving KXX 8 mg every 2 weeks during the open-label extension study.\nStudies were stratified for the presence of tophi. Seventy-one percent (71%) of patients had baseline tophi. All patients were prophylaxed with an oral antihistamine, intravenous corticosteroid and acetaminophen. Patients also received prophylaxis for gout flares with non-steroidal anti-inflammatory drugs (NSAIDs) or colchicine, or both, beginning at least one week before KXX treatment unless medically contraindicated or not tolerated. Patients who completed the randomized clinical trials were eligible to enroll in a 2-year open label extension study."}, "[2]": {"tested_on": "subjects weighing ≥120 kg", "test": "Analysis of prior pegloticase randomized clinical trials by body weight (>=120 kg)", "type": "in vivo, human", "settings": "≥120 kg group"}, "[3]": {"test": "Stability of pegloticase diluted in infusion bags", "type": "physicochemical", "settings": "at 2° C. to 8° C. and at room temperature (20° C. to 25° C.)", "description": "Pegloticase-diluted in infusion bags is stable for 4 hours at 2° C. to 8° C. (36° F. to 46° F.) and at room temperature (20° C. to 25° C., 68° F. to 77° F.); however, it is recommended that the diluted solution be stored under refrigeration, not frozen, protected from light, and used within 4 hours of dilution. Before administration, the diluted solution of pegloticase should be allowed to reach room temperature. Pegloticase in a vial or in an IV infusion fluid should never be subjected to artificial heating.\nKXX diluted in infusion bags is stable for 4 hours at 2° to 8° C. (36° to 46° F.) and at room temperature (20° to 25° C., 68° to 77° F.). However, it is recommended that diluted solutions be stored under refrigeration, not frozen, protected from light, and used within 4 hours of dilution. Before administration, allow the diluted solution of KXX to reach room temperature. KXX in a vial or in an intravenous infusion fluid should never be subjected to artificial heating (e.g., hot water, microwave)."}, "[4]": {"tested_on": "patients with symptomatic gout", "settings": "after doses of 4 to 12 mg, within 24 to 72 hours, from 11.1±0.6 mg/dL; cited from earlier work"}, "[5]": {"tested_on": "patients with chronic gout refractory to conventional therapy", "settings": "cited from earlier work"}, "[6]": {"test": "Pharmacokinetics after single intravenous infusions, serum uricase enzyme activity", "type": "in vivo, human", "settings": "single intravenous infusions of 0.5 mg to 12 mg, 23 patients", "description": "Pegloticase levels were determined in serum based on measurements of uricase enzyme activity."}, "[7]": {"tested_on": "patients with chronic gout refractory to conventional therapy", "test": "Adverse reactions in pre-marketing controlled clinical trials of KXX", "type": "in vivo, human", "description": "During the second 3 months of treatment, a lower proportion of pegloticase-treated patients experienced flares than patients receiving placebo. The incidence of flares during this time period was lowest in the group receiving pegloticase 8 mg every 2 weeks than in the group who received pegloticase 8 mg every 4 weeks, as was the incidence of infusion-related reactions (26% with biweekly dosing vs. 40% with the every-4-week dosing regimen). Both infusion reactions (IRs) and gout flares were least common in patients with sustained urate-lowering responses to treatment and those who received bi-weekly treatment. In most pegloticase-treated patients with IRs, a loss of response to pegloticase (return to SUA>6 mg/dL) preceded the time of the first IR (20/21; 95%).\nThe most commonly reported serious adverse reactions from pre-marketing controlled clinical trials were anaphylaxis, which occurred at a frequency of 6.5% in patients treated with KXX 8 mg every 2 weeks, compared to none with placebo; infusion reactions, which occurred at a frequency of 26% in patients treated with KXX 8 mg every 2 weeks, compared to 5% treated with placebo; and gout flares, which were more common during the first 3 months of treatment with KXX compared with placebo. All patients in pre-marketing controlled clinical trials were pre-treated with an oral antihistamine, intravenous corticosteroid and/or acetaminophen to prevent anaphylaxis and infusion reaction.\nThe data described below reflect exposure to KXX in patients with chronic gout refractory to conventional therapy in two replicate randomized, placebo-controlled, double-blind 6-month clinical trials: 85 patients were treated with KXX 8 mg every 2 weeks; 84 patients were treated with KXX 8 mg every 4 weeks; and 43 patients were treated with placebo. These patients were between the ages of 23 and 89 years (average 55 years); 173 patients were male and 39 were female; and 143 patients were White/Caucasian, 27 were Black/African American, 24 were Hispanic/Latino and 18 were all other ethnicities. Common co-morbid conditions among the enrolled patients included hypertension (72%), dyslipidemia (49%), chronic kidney disease (28%), diabetes (24%), coronary artery disease (18%), arrhythmia (16%), and cardiac failure/left ventricular dysfunction (12%).\nDiagnostic criteria of anaphylaxis were skin or mucosal tissue involvement, and, either airway compromise, and/or reduced blood pressure with or without associated symptoms, and a temporal relationship to KXX or placebo injection with no other identifiable cause. Using these clinical criteria, anaphylaxis was identified in 14 (5.1%) of 273 total patients studied in the clinical program of IV KXX. The frequency was 6.5% for the every 2-week dosing regimen (8 of 123 patients), and 4.8% for the 4-week dosing frequency (6 of 126) of KXX. There were no cases of anaphylaxis in patients receiving placebo."}, "[8]": {"settings": "KXX 8 mg every 2 weeks (N = 85)"}}, "note": "Like-named read-outs stand apart in the source and are kept apart here."}
{"substance": "pegloticase", "values": [{"measurement": "subjects with exacerbations of pre-existing congestive heart failure", "setting": "[1]", "value": "Four"}, {"measurement": "impact on serum urate", "setting": "[2]", "value": "less"}, {"measurement": "initial serum peak of pegloticase (Cmax)", "setting": "[2]", "value": "lower"}, {"measurement": "tendency to become non-responders", "setting": "[2]", "value": "greater tendency to become non-responders"}, {"measurement": "stability diluted in infusion bags", "setting": "[3]", "value": 4, "unit": "h"}, {"measurement": "plasma urate concentration (pUAc), mean±SD", "setting": "[4]", "value": "1.0±0.5", "unit": "mg/dL"}, {"measurement": "incidence of infusion-related reactions", "setting": "[5]; pooled Phase 3, 8 mg biweekly dosing", "value": 26, "unit": "%"}, {"measurement": "incidence of infusion-related reactions", "setting": "[5]; pooled Phase 3, 8 mg every-4-week dosing regimen", "value": 40, "unit": "%"}, {"measurement": "patients with IRs in whom loss of response (return to SUA >6 mg/dL) preceded the first IR", "setting": "[5]; pooled Phase 3, 20/21", "value": 95, "unit": "%"}, {"measurement": "maximum serum concentrations of pegloticase versus dose", "setting": "[6]", "value": "increased in proportion to the dose administered"}, {"measurement": "frequency of anaphylaxis", "setting": "[7]; 4-week dosing frequency (6 of 126)", "value": 4.8, "unit": "%"}, {"measurement": "anaphylaxis in total patients studied in the clinical program of IV KXX", "setting": "[7]; 14 of 273 total patients", "value": 5.1, "unit": "%"}, {"measurement": "patients with infusion reactions", "setting": "[7]; KXX 8 mg every 2 weeks", "value": 26, "unit": "%"}, {"measurement": "Adverse reaction: Anaphylaxis", "setting": "[7]; [8]", "value": "4 (5%) N (%)"}, {"measurement": "Adverse reaction: Chest Pain", "setting": "[7]; [8]", "value": "5 (6%) N (%)"}, {"measurement": "Adverse reaction: Constipation", "setting": "[7]; [8]", "value": "5 (6%) N (%)"}, {"measurement": "Adverse reaction: Contusion or Ecchymosis", "setting": "[7]; [8]", "value": "9 (11%) N (%)"}, {"measurement": "Adverse reaction: Gout Flare", "setting": "[7]; [8]", "value": "65 (77%) N (%)"}, {"measurement": "Adverse reaction: Infusion reaction", "setting": "[7]; [8]", "value": "22 (26%) N (%)"}, {"measurement": "Adverse reaction: Nasopharyngitis", "setting": "[7]; [8]", "value": "6 (7%) N (%)"}, {"measurement": "Adverse reaction: Nausea", "setting": "[7]; [8]", "value": "10 (12%) N (%)"}, {"measurement": "Adverse reaction: Vomiting", "setting": "[7]; [8]", "value": "4 (5%) N (%)"}, {"measurement": "patients with infusion reactions", "setting": "[7]; KXX 8 mg every 4 weeks", "value": 41, "unit": "%"}, {"measurement": "cases of congestive heart failure exacerbation", "setting": "[7]; during the trials, KXX 8 mg every 2 weeks", "value": "Two"}, {"measurement": "frequency of anaphylaxis", "setting": "[7]; every 2 weeks dosing regimen (8 of 123 patients)", "value": 6.5, "unit": "%"}, {"measurement": "percentage of patients with any gout flare", "setting": "[7]; first 3 months, KXX 8 mg every 2 weeks", "value": 74, "unit": "%"}, {"measurement": "percentage of patients with any gout flare", "setting": "[7]; first 3 months, KXX 8 mg every 4 weeks", "value": 81, "unit": "%"}, {"measurement": "infusion reaction manifestation: chest discomfort, frequency", "setting": "[7]; human, in vivo", "value": 9.5, "unit": "%"}, {"measurement": "infusion reaction manifestation: chest pain, frequency", "setting": "[7]; human, in vivo", "value": 9.5, "unit": "%"}, {"measurement": "infusion reaction manifestation: dyspnea, frequency", "setting": "[7]; human, in vivo", "value": 7.1, "unit": "%"}, {"measurement": "infusion reaction manifestation: erythema, frequency", "setting": "[7]; human, in vivo", "value": 9.5, "unit": "%"}, {"measurement": "infusion reaction manifestation: pruritus, frequency", "setting": "[7]; human, in vivo", "value": 9.5, "unit": "%"}, {"measurement": "infusion reaction manifestation: urticaria, frequency", "setting": "[7]; human, in vivo", "value": 10.6, "unit": "%"}, {"measurement": "infusion reactions occurring with the first infusion", "setting": "[7]; human, in vivo", "value": "approximately 3%"}, {"measurement": "infusion reactions that occurred during the time of infusion", "setting": "[7]; human, in vivo", "value": "approximately 91%"}, {"measurement": "reactions in patients with glucose-6-phosphate dehydrogenase (G6PD) deficiency", "setting": "[7]; human, in vivo", "value": "Life threatening hemolytic reactions and methemoglobinemia have been reported"}, {"measurement": "percentage of patients with any gout flare", "setting": "[7]; subsequent 3 months, KXX 8 mg every 2 weeks", "value": 41, "unit": "%"}, {"measurement": "percentage of patients with any gout flare", "setting": "[7]; subsequent 3 months, KXX 8 mg every 4 weeks", "value": 57, "unit": "%"}]}
